Measurements as given in the nanobody polyreactivity screen of Harvey et al. (2022).

Assay: yeast display, Sf9 membrane polyspecificity reagent, FACS + sequencing; frameworks hold sequencing errors
Outline: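 Nanobodies came from a synthetic yeast display library in Saccharomyces cerevisiae BJ5465, induced with galactose for 36–48 hours and stained for 1 hour at 4 °C with 10% biotinylated, detergent-solubilized Sf9 membrane reagent. Cells were enriched on streptavidin microbeads and then FACS-sorted, with low and high (top ~1%) gates set on anti-HA fluorescence for expression and streptavidin fluorescence for reagent binding. Each polyreactivity label reflects the gate a clone came from. Genes were amplified by colony PCR, sequenced by MiSeq 2 × 250 and filtered by CDR length.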

Sequence	polyreactivity (PSR sort gate)
QVQLVESGGGLVQAGGSLRLSCASSGSTFAPNAMGWYSQAPGKEREFVAAITYRGSSTYYADSVKGRFTISRDNAKNTVYLQMNSLKPEDTAVYYCAADYVEYKVRSYDYWGQGTQVTVSS	low polyreactivity
QVQLVESGGGLVQAGGSLRLSCAASGGIFSYYVMGWYRQAPGKEREFVASITQRGRTYYADSVKGRFTISRDNAKNTVYLQINSLKPEDTAVYYCAAGIYAFRRHREEYDYWGQGTQVTVSS	high polyreactivity
QVQLVESGGGLVQAGGILRLSCAASGINFLYYAMGWYREAPGKEMELVAAINGSGGNTYYADSVKGRFTISLDNAKNTVYLQMNRLKPEDTAVYYCNADFFVYSYQQWDEYYDYWGQGTQVTVSS	low polyreactivity
QVQLEEAGGGLVQAGGSLRLSCAASGRTFFENAMGWYRQAPGKEREFVAAISYNGGSTYYADSVKGRFTISRDNAKNTVYLQMNSMKPDDTAVYYCAADPNYGYDYWGQGTQVTVSS	low polyreactivity
QVQLVESGGVLVQAGGSLRLSCAASGIIFFGYAMGWYRQAPGKERELFAAISYSTGGTSTYADSVKGRFTISRDNAKNTVYLQKNSLKPEDTAVYYCAVRRQYRRAYSFSQSRYDYWGQGTQVTVSS	high polyreactivity
QVQLVESGGGLVQAGGSLRLSCAASGSISDWNAMGWYRQAPGKERELVAAINWSGDTTYYADSVKGRFTFSRDNSKNTVYLQMNSLKPEDTAVYYCAAYLVVDYDWYDYWGQGTQVTVSS	high polyreactivity
QVQLVESGGGLVQAGGSLRLSCAASGFTFRKNDMGWYRQAPGKERELLAAISSGGGRTYYADSVKWRFTISRDNAKNTVYLQMNSLKQEDTAVYYCNADDGYYVGLSSAIYDYCGQGTQVTVSS	high polyreactivity
QVQLVESGGGLVQAGGSLRLSCAASGSTFDHYTMGWYRQAPGKERELVAAINRIGDSTYYADSVKGRCTISRDNAKNTVYLQMTSLKPEDTAVYYCNTVSLSLRFDYWGQGTQVTVSS	high polyreactivity
QVQLVESGGGLVQAGGSLRLSCAASGSTLGRYTMGWYRQAPGKERELVATITASGGGTYYADSVKGRFTISRDTAKNTVYLQMNSLKPEDTAVYYCNAVLWYHFGYDYWGQGTQVTVSS	low polyreactivity
QVQLVESGGGLVQAGGSRRLSCAASGSIFYTYLMGWYRPAPGTDRELVAAISASGVRTYYADSVKGRFTISRDNAKITVYLEMNSLKPEDTAVYYCAADRQRADYYWGQGRQVTVSS	high polyreactivity
QVQLGESGGGLVQAGGSLRLSCAASGGTYTHYGMGWYRQATGKERELVAAITWTASSTYYADSVKGRFTISRDNAKNTVYLQMNSLKPEDTAVYYCATSYYYWGHTYDYWGQGTQVTVSS	low polyreactivity
QVQLVESGGGLVQAGGSLRLSCAASGSTFYYYAMGWYRQAPGKERELVAAINSSGGNTYYADSVKGRFTISRDNAKNTVYLQMNSLNPEDTAVYYCATEYYWLQDYDYWGHGTQVTVSS	low polyreactivity
QVQLVESGGGLVQAGGSLRLSCAASGLTFWPYVMGWYRQAPGKERELVAAIDDTGITYYADSVKGRFTISRDNEKNTVYLQMNTLKPEDTAVYYCATDWDYYFPWIYPSDAGPEDGYCGQGTQVTVSS	low polyreactivity
QVQLVESGGGLVQAGGSLRLSCAASGSTLRRYAMGWDRQAPGKERELVAAISGSGDSTYYADSVKGRFTISRDNAKNTVYLQMNSLKPEDTAVYYCNAVYAFNGYDYWGQGTQVTVSS	low polyreactivity
QVQLVESGGGLVQAGGSLRLSCAASGITFGSYAMGGYRQAPGKERELVAAITRRGDNTYYADSVKGRFTISRDNAKNTVYLQMNSLKPEDTAVYYCNAAKGGRYPDYDYWGQGTQVTVSS	high polyreactivity
QVQLVESGGGLVQAGGSLRLSCAASGFTFVRNTMGWYRQATGKERELVAAISRSGGSTYYADSVKGRFTISRDNAKNTVYFKIYSLKPEDSAVYYCNAYRYVHYDWGHGTQVTVSS	high polyreactivity
QVQHVESGGGLVQAGGSLRLSCAASGFTFSKYGMGWYRQAPGKERELVAAISGSGGNTYYADSVKGRFTISRDNAKNTVYLQMNSLKPEDTAVYYCNAEGWRYYYWYHEYGYWGQGTQVTVSS	low polyreactivity
QVQLVESGGGLVQAGGSLRLSCAASGRIFSNYAMGWYRHAPGKEREFVAAISGSGGITYYADSVKGRFTISRDNAKNTFYLQMNSLKPEDTAVYYCARRLHYVPLISYNYWGQGTQVTVSS	low polyreactivity
QVQLVESGGGLVQAGGSLRLSCAASGSIFMGNAMGWYRQAPGKERELVATITSSGSTSYADSVKGRFTISRDNAKNTVYVQMNSLKPEDTAVYYCNTDLFQYGRTSTIYYEYDYWGQGTQVTVSS	high polyreactivity
QFQLEESGGGLVQAGGSLRLSCAASGRIFPTYTRGWYSQAPGKERVLVAGISYSGTSTSYADSVKGRFTMSRDNAKNSVYLELNSLKPEDTAVYYCAAKYYGRSFYYGYDYWGQGTQVTVSS	low polyreactivity
QVQLVESGGGLVQAGGSLRLSCAASGRIFAWNAMGWYRQAPGTERELVARIRVSGGRTYYADSVKGRFTISRDNAKNTVYLQMNSLKPEDTAVDYCNAYLRSGSMDYWGQGTQVTVSS	high polyreactivity
QVQLVESGGGLVQAGGSLRLSCAASGRTYYWNAMGWYRQAPGKEREFVAAITNTAGSTYYADSVKGRFTISRDNAKNTVYLQMNSLKPEDTAVYYCAKSGNAGYRTYLRDYWGQGTQVTVSS	low polyreactivity

Sequence	polyreactivity (PSR sort gate)
QVQLVESGGGLVQAGGSLRLSCAASGFIFWSYAMGWYRQAPGKERELVAAIDLTGGSTYYADSVKGRFTISRDNAKNTVYFQMNSLKPEDTAVYYCNADGDTYAFTNSDSGFDYWGQGTQVTVSS	low polyreactivity
QVQLVESGGGLVQAGGSLRFSCAASGSIFYVYAMGWYRQAPGKERELVAAIRWSGGSTYYADSVKGRFTISRDNAKKSVYLQMNSLKPEDTAVYYCAADAIPDSVCYWEYDYWGQGTQVTVSS	low polyreactivity
QVQLVESGGGLVQAGGSLRLSCAASGFTFYYYTMGWYRQAPGKQRELVAAITWRGGSTNYADSVKGRFTISRDNAKNTVFLQMNSLKPEDTAVYYCAAVSYWFWPGMDYWGQGTQVTVSS	low polyreactivity
QVQLVESGGGLVQAGGSLRLSCAASGITFLWNVMGWYRQAPGKERELVATITSIGGITNYADSVKGRFTISRDNAKNTVYLQMNSLKPEDTAVYYCARDDRDIRGESGREGFLYDYWGQGTQVTVSS	low polyreactivity
QVRLVESGGGLVQAGGSLRLSCAASGRIFLYNARGWYRQAPGKERELVAAINLSDVDTYYADSVKGRFTISRDNAKNTVYLQMNSLKPEDTAVYYCAADGIYWSTIGYYWGQGTQVTVSS	low polyreactivity
QVQLVESGGGLVQAGGSLRLSCAASGSTIFENVMGWYRQAPGKEREFVAAINTSGGSTYYADSVKGRFTISRDNAKNTVYLQMNSLKPEDTAVYYCARDSYWEMDYWGQGTQVSVSS	low polyreactivity
QVQLVESWGGLVQAGGSLRLSCAASGSTLYQYDMGWYRHAPGKEREYLAAITTYGDSTYYADSVKGRFTISRDNAKNTVYLQMNSLKPEDTAVYYCNADVFKTVFYIDRYYYWGQGTQVTVSS	low polyreactivity
QVQLVESGGGLVQAGGSLRLSCAASGRTFVSNAMGWYRQAPGKERELVAAISWSGSRTYYADSVKGRFTISRDNAKNTVYLQMNSLKPEDTAVYYCAAAKPKKSRGSAYEYWGQGTQVTVSS	high polyreactivity
QVQLVESGGGLVQAGGSLRLSCAASGFIFIVNAMGWYRQAPGKERELVATISSSGDITRYADSVKARFTISRDNAKNTVYLQMNSLKPEDTAVYYCAARLWTGYWGQGTQVTVSS	high polyreactivity
QVQLVESGGGLVQAGGSLRLSCAASGSTFHSNAMGWYRQAPGKERELVAAISQGGGRTYYADSVKGRFSISRDNAKNTVYLQMNSLKPEDTAVYYCNRRTRGLIDGGMDYWGQGTQGTVSS	low polyreactivity
QVQLVESVGGLVQAGGSLRLSCAASGSTFAFYDMGWYRQAPGKERELVAAISQSDGDTYYADSVKGRFTISRDNAKNTVYLQMNSLKPEDTAVYYCAAETAHTPEYERGSDYWGQGTQVTVSS	low polyreactivity
QVQLVESVGGLVQAGGSLRLSCAASGNTFKYYAMGWYRQAPGKERELVAGITWTGGRTNYADSVKGRFTISRDNAKNTVYLQMNSLKPEDTAVYYCAADYWWYTGYDYWGQGTQVTVSS	high polyreactivity
QVQLVESGGGLVQAGGSLRLSCAASGFTFKYYAMGWYRQAPGKERELVAVINQSGGSTSYADSVKGRFTISRDNAKNTVYLQMNSLKPEDTAVYYCAALVGLFWLWNYDYWGQGTQVTVSS	high polyreactivity
QVQLVESGGGLVQAGGSLRLSCAASGSIFNDNVMGWYRQAPGKERELVAGISRSGTRTYYADSVKGRFTISRDNAKNTVYLQMNSLKPEDTAVYSGAAAYGQARRYNGSQYGSWGQGTQVTVSS	high polyreactivity
QVQLVESGGGLVQAGGSLRLSCAPSGFTFDFYAMGWYRQEPGKATELFAAINSGGSTNYADSVKGRFTISRDNAKNTVYLQMNSLKPEDTAVYYCNADWFTPAQPWYRYFIRYDYWGQGSQVTVSS	low polyreactivity
QVQLVESGGGLVQAGGSLRLSCAASGRTFGIYAMGWYRQAPGKERELVASISWSGGRTYYADSVKGRFTISRDNAKNTVYLQMNSLIPEDTAVYYCAAYGVYYPRSWQYFDWYGYWGQGTQVTVSS	high polyreactivity
QVQLVESGGGLVQAGGSLRLSCASSGIIFNVYAMGWYRQAPGKERELVAAISSTSSTYADSVKGRFTISRDNAKNTVYLQMNSLKPEDTAVYYCNTDYSDGYPAFAYWGQGTQVTVSS	low polyreactivity
QVQLVESGGGLVQAGGSLRLSCAASGNTFRDYAMGWYRQAPGKERELVAAITSSGARTYYADSVKGRFTISRDNAKNTVYLQMISLKPEDTAVYYCAADWSGYYTYDYWGQGTQVTVSS	low polyreactivity
QVQLVESGGGIVQAGGSLRLSCAASGRIFVLYAMGSYRQAPGKERELVADITVSGGRTYYADSVKGRFTISRDNAKYTVYLQMNSLKPEDTAVYYCAASPRSYYWRYYQEDYWGQGTQVTVSS	high polyreactivity
HVQLVESGGGLVQAGGSLRLSCAASGRTFGAYAMGWYRQAPGKERELVAAISKSGGRTYYADSVKGRFTISRDNAKNTVYLQMNSLKPEDSAVYYCNARGFRGEYDYWGQGTQVTVSS	high polyreactivity
QVQLVESGGGLVQAGGSLRLSCAASGLTFARYAMGWSRQAPGKERELVAAISSSGGTKYADSVKGRFTISRDNAKNTVYLQMNSLIPEDTAVYYCNADAVVERSSVWYYWSIYEYWGQGTQVTVSS	low polyreactivity
